Data: PMC10630410, “Functional dissection of PRC1 subunits RYBP and YAF2 during neural differentiation of embryonic stem cells” (Nature Communications, 2023)

Target: T1, GST-RING1B (mouse, UniProt Q9CQJ4 1-336)
T1 construct: RING1B (Ring1b), the coding region amplified from mouse cDNA, in pGEX-4T; also called pGEX-4T-mRing1b; source: E. coli BL21 (DE3), purified (glutathione agarose); not shown: GST, N-terminal, kept
T1 sequence (looked up): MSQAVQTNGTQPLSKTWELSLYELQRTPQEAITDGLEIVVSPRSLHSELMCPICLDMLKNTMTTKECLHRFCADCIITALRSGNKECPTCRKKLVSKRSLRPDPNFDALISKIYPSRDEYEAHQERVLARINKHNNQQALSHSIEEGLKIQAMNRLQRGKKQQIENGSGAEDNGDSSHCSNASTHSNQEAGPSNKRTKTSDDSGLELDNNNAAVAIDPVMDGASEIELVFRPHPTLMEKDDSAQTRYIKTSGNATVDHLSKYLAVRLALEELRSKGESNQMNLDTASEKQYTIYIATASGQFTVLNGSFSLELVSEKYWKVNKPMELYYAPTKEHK
Assay: pull-down; same mixture as a3: purified His-mYAF2-mCherry (0, 100, 300 ng) with 300 ng purified GST-RING1B in the presence of mESC extract, PBS, 4 °C; read out as loss of RYBP from GST-RING1B
Conditions: both partners purified

binding result: binds
B1: His-mYAF2-mCherry (natural protein, mouse, UniProt Q99LW6 1-179, looked up)
chain: MGDKKSPTRPKRQPKPASDEGYWDCSVCTFRNSAEAFKCMMCDVRKGTSTRKPRPVSQLVAQQVTQQFVPPTQSKKEKKDRVEKDKSEKEAASKKNCHKKTRPRLKNVDRSSAQHLEVTVGDLTVIITDFKEKAKSAPASSAAGDQHSQGSCSSDSTERGVSRSSSPRGEASSLNGESH
notes: YAF2 (Yaf2), the coding region amplified from mouse cDNA, in pET-28a; also called His-YAF2; pET-28a-mYaf2-mCherry; source: E. coli BL21 (DE3), purified (Ni-NTA); not shown: His6, N-terminal, kept
